Source: patent US20140227782A1 (UMUVERSIDAD DE VALLADOLID, published 2014)

Target: T1, Modified biopolymer 3' (biopolymer 3, 427 amino acids, structure D-B84, with amino groups transformed into … (amino groups of the lysines of peptide D transformed into azide groups (lysine transformation rate 50%); covalently grafted to alkynyl-functionalised glass by click cycloaddition)
T1 construct: In the assay it was grafted to a glass surface through 1,2,3-triazole links; also called POLYM; 3'
T1 chain: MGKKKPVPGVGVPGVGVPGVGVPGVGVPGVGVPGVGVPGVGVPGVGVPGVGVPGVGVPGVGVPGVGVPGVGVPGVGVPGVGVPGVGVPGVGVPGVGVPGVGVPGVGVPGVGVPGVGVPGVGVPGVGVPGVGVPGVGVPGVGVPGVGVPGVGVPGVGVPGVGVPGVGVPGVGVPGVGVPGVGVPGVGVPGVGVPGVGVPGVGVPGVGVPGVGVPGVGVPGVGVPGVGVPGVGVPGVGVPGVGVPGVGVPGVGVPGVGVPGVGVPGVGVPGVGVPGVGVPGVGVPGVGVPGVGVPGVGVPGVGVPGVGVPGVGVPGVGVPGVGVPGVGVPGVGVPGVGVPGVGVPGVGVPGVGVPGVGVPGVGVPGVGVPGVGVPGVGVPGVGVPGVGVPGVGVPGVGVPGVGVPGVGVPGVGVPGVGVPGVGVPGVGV
Assay: ToF-SIMS of a glass surface grafted with polymer 3' after immersion in an aqueous solution of polymer 4

binding result: binds
B1: Biopolymer 4 (371 amino acids), structure B14-A2-B14 (other)
chain: MESLLPVPGVGVPGVGVPGVGVPGVGVPGVGVPGVGVPGVGVPGVGVPGVGVPGVGVPGVGVPGVGVPGVGVPGVGVPGIGVPGIGVPGIGVPGIGVPGIGVPGIGVPGIGVPGIGVPGIGVPGIGAVTGRGDSPASSVPGIGVPGIGVPGIGVPGIGVPGIGVPGIGVPGIGVPGIGVPGIGVPGIGVPGIGVPGIGVPGIGVPGIGVPGIGVPGIGVPGIGVPGIGVPGIGVPGIGAVTGRGDSPASSVPGIGVPGIGVPGIGVPGIGVPGIGVPGIGVPGIGVPGIGVPGIGVPGIGVPGVGVPGVGVPGVGVPGVGVPGVGVPGVGVPGVGVPGVGVPGVGVPGVGVPGVGVPGVGVPGVGVPGVGV
notes: Unmodified polymer 4, adsorbed from aqueous solution onto the surface grafted with polymer 3'; also called POLYM
